The data set in a line: soluble on expression in E. coli; label from the status in PepcDB or PDB records.
As to “MADIDNKEQSELDQDLEDVEEVEEEETGEETKIKARQLTVQMMQNPQILAALQERLDGLVDTPTGYIESLPKVVKRRVNALKNLQVKCAQIEAKFYEEVHDLERKYAVLYQPLFDKRFEIINAIYEPTEEECEWKPDEEDEVSEELKEKAKIEDEKKDEEKEDPKGIPEFWLTVFKNVDLLSDMVQEHDEPILKHLKDIKVKFSDAGQPMSFVLEFHFEPNDYFTNEVLTKTYRMRSEPDDSDPFSFDGPEIMGCTGCQIDWKKGKNVTLKTIKKKQKHKGRGTVRTVTKTVSNDSFFNFFAPPEVPENGDLDDDAEAILAADFEIGHFLRERIIPRSVLYFTGEAIEDDDDDYDEEGEEADEGYQLFEEVKSCSKLFQRWLQ”, the “soluble on expression in E. coli” value is recorded as “soluble”. As for “MADKSAYMGAGGYGSGYMGSNASSSGYAREDYAQGGNGGGQQQQNQGSGGNTNPGGQVFKARTDQSCYLGP”, the “soluble on expression in E. coli” value is “not soluble”.

On to “MADKYLTQSPAGEFVMFASDDGEVRVECRFEQETLWLPQATIANLYQITPQAVTQHIKAIYEEGELEQNATCKSYLQVQQEGSRQVSRNRLHYSLPVILAVGYRVRSPRGTQFRQWATQTLQKYLIKGFVMDDERLKNPPVGSSAVPDYFDEMLERIRDIRASERRVYLRVREIFALAADYQPSLKETTQFFQTIQNKLHFACTGHTAAELIHQRADASQPHMGLTSYKGEEVRKDDVTVAKNYLTQDEVSELNRVVNMWLDFAEDQARRRQQIFLRDWQDKLDQFLQFNDREVLQGAGKVTKKMADEKAQAEYSQFAEQQRRLKEAEGEKDIAGLLQWETEPKK”, for which the “soluble on expression in E. coli” value is “not soluble”. Regarding “MADMKNKYDVKRIIPDELSESLDIFLKNYSETGLSDYNTYLFYGFILKSYKLPRENRYSIKLLVKELQNRGLKVTLIINIYYHALNCLALNDGLKIYGEDFLI”, the “soluble on expression in E. coli” value is listed as “not soluble”. The value for “MADPNWAYAPPTNYYADHSIAKPIMISGGHPSQDQGHSPKSESFGQSVTTAFNGMVDNLVGSPSSSVQQRNYFTTTPFPISRSPNDRNDDKIMGNGSYGVPIPIPQDGVPQGTPDFQMTPFLQQGGHLIGGSPNGPVQVSGNWYSGGAGIFSTMQQADPSNGMPGMAAEFVNNENGMPGPNGMHQQAMISGSPPFPYQNMMNLTTSFGAMGLGPQQIQQRDPQMFQQPILHEPIQGMAQNGFGQQVFFTQMQNQQHPQGQAQQQLQQLAQQHQQQQNSQQFFGQGPNGMGNGGVMNDWSQRSFGMPQQQAQQNGLPPNFSQNPPRRRGPEDPNGQTPKTLQDIKNNVIEFAKDQHGSRFIQQKLERASLRDKAAIFTPVLENAEELMTDVFGNYVIQKFFEFGNNEQRNQLVGTIRGNVMKLALQMYGCRVIQKALEYVEEKYQHEILGEMEGQVLKCVKDQNGNHVIQKVIERVEPERLQFIIDAFTKNNSDNVYTLSVHPYGCRVIQRVLEYCNEEQKQPVLDALQIHLKQLVLDQYGNYVIQHVIEHGSPSDKEQIVQDVISDDLLKFAQHKFASNVIEKCLTFGGHAERNLIIDKVCGDPNDPSPPLLQMMKDPFANYVVQKMLDVADPQHRKKITLTIKPHIATLRKYNFGKHILLKLEKYFAKQAPANSSNSSSNDQIYEHSPFDIPLGADFSNHPF” was “not soluble”. For “MADTLGKSELEVIKPQKREIRKGQVRKHIITVKVRNEMGVLARIATLIAGKGYNIEGLSVGETHEKGISRMTIEVIGDDIVIEQVVKQLRRLIDTLKVSDLTDVPHVERELALIKVYTPSSRARDEVLRITEIFRGKVVDVSPDTYTIEVTGDEDKINAMIELLKPFGIKEMARTGKVAMRREMSIKEEENELEHHHHHH” the value was “not soluble”; for “MADTTILDTTCSSTLAANVEFSHATDSAIGISLKNATITEAEGVPNLKETGYDCVRYMGTCNGGQIYLGRERKKLKDYVAIKKFAIDDVDDYAAIAKESSNLRLMHHPNIIELCECFVYERSIYQITPAMNLGSLFDIVFEYMKWGINEKSAAAITRQLLDALSYLHQRRYIHRDLKPKHILIDSSGNVKLSGFRFMIELNHHLDCVFEFDAHLQNQLYYLAPEVLAQNIHGYTSKSDIYMLGISICEAINGVMPFGELEPLEMLHRKLNGQVPRPVDMISLKDDQKMGLDISHRPQEHLTRRFSKEMHEFIANCLDYDPQQRGSASDLKSSAWLGSKIHKNLGPVDVRQELNLDYAHFDLSLWEQEPLIPMEPDQKYEIVFDYSPIS”, “not soluble”. On to “MADWVTGKVTKVQNWTDALFSLTVHAPINPFTAGQFTKLGLEIDGERVQRAYSYVNAPDNPNLEFYLVTVPQGKLSPRLAALKPGDEVQVVSDASGFFVLDEVPDCETLWMLATGTAIGPYLSILQYGQDVARFKNLVLVHAARFAADLSYLPLMLELQQRYEGKLRIQTVVSRENVPGSLTGRVPALIENGELEKAVGLPMDKETSHVMLCGNPQMVRDTQQLLKETRQMTKHLRRRPGHMTAEHYW”, for which the “soluble on expression in E. coli” value is “not soluble”. Turning to “MAEDSNSSESIIVNVTGDDNKSALFGKYDLGKLLGSGAFAKVYQAEDLQNGGESVAIKVVQKKRLKDGLTAHVKREISVMRRLRHPHIVLLSEVLATKTKIYFVMELAKGGELFSRVTSNRFTESLSRKYFRQLISAVRYCHARGVFHRDLKPENLLLDENRDLKVSDFGLSAMKEQIHPDGMLHTLCGTPAYVAPELLLKKGYDGSKADIWSCGVVLFLLNAGYLPFRDPNIMGLYRKIHKAQYKLPDWTSSDLRKLLRRLLEPNPELRITVEEILKDPWFNHGVDPSEIIGIQADDYDLEENGKILNAFDLISSASSSNLSGLFGNFVTPDHCDQFVSDESTAVIMRKVEEVAKQLNLRIAKKKERAIKLEGPHGVANVVVKVRRLTNELVMVEMKNKQRDVGLVWADALRQKLRRLINQPVYKVPDKP”, the “soluble on expression in E. coli” value was “not soluble”.

For “MAEETPPIVELAEWFQTPPGQYVLAWEQAQFDEAVADIFGYYAWQVGLAEPNLLRANRMPFKAWVGAGVPPPELAQGWQACVAAAPEALPFESQSVDLLVLPHAFECAEAPHLVLREVERVLVPEGRVVISGFNPWSLWGARNLMPGMEAWLPLPLSAQVALPRLKDWFKLLSFEVERGRFGCYAPACRTDKWLRRWRFMERYGQRWWGLGGAVYVVTATKKVAAMRLIGPAWKTRRKRAQAASVVVNRQADDPGRLEHHHHHH”, the “soluble on expression in E. coli” value is recorded as “not soluble”.

Consider “MAEFASAEFDRMLAEARSMLDAMRSGRSAPSDEEEVKGVGEAADGRVTVTVNSSGLLESVELNPRLLRLPAEEIGEHIVTAVNAALQDFRTKANQAVGAASVDLNALAASMQELQDQSVRQMAQIGQAFNELLTKLDGMR”, for which the “soluble on expression in E. coli” value was “not soluble”. As to “MAEKLNFEELNSMQRYSQFAVFRAIPGALGSDRAEIVAQAQSFFDGLETAGKVEVRGIYDLAGCRAEADFMIWWIAEEFEEIQAAFARFRRETVLGQVSEVAWLGNSLHRPAEFNRSHLPSFIMGEIPGDWITVYPFVRSYDWYIMDPQKRRKILAEHGQAARDFPDVRANTVPAFALGDYEWMLAFEAPRLDRIVDLMHKMRYTEARLHVREETPFFTGRRVSEVSELVNVLP”, the “soluble on expression in E. coli” value is on record as “not soluble”. With “MAEKRTVRPFAGTERRAKGWIQEAALRMLNNNLHPDVAERPDELIVYGGIGKAARNWECYEAIVDTLLRLENDETLLIQSGKPVAVFRTHPDAPRVLIANSNLVPAWATWDHFHELDKKGLIMYGQMTAGSWIYIGSQGIVQGTYETFAEVARQHFGGTLAGTITLTAGLGGMGGAQPLAVTMNGGVCLAIEVDPARIQRRIDTNYLDTMTDSLDAALEMAKQAKEEKKALSIGLVGNAAEVLPRLVETGFVPDVLTDQTSAHDPLNGYIPAGLTLDEAAELRARDPKQYIARAKQSIAAHVRAMLAMQKQGAVTFDYGNNIRQVAKDEGVDDAFSFPGFVPAYIRPLFCEGKGPFRWVALSGDPEDIYKTDEVILREFSDNERLCHWIRMAQKRIKFQGLPARICWLGYGERAKFGKIINDMVAKGELKAPIVIGRDHLDSGSVASPNRETEGMKDGSDAIADWPILNALLNAVGGASWVSVHHGGGVGMGYSIHAGMVIVADGTKEAEKRLERVLTTDPGLGVIRHADAGYELAIRTAKEKGIDMPMLK”, the “soluble on expression in E. coli” value is “soluble”.

“MAEKTYSGFVAIVGKPNVGKSTLLNNLLGVKVAPISPRPQTTRKRLRGILTEGRRQIVFVDTPGLHKPMDALGEFMDQEVYEALADVNAVVWVVDLRHPPTPEDELVARALKPLVGKVPILLVGNKLDAAKYPEEAMKAYHELLPEAEPRMLSALDERQVAELKADLLALMPEGPFFYPEDYAKSDQTFGEWVAEILREEAMKRLWHEVPYAVATKVEEVAERENGVLYIKAILYVERPSQKAIVIGEGGRKIKEIGQATRKQLEALLGKKVYLDLEVKVYPDWRKDPEALRELGYRSSVG”: the “soluble on expression in E. coli” value is reported as “soluble”. Regarding “MAELLPLSPVPLYTQLKELLRERILDGTYPSHSRMPSESELGKAFDVSRITVRQALGDLQKEGLIFKIHGKGTFVAKPKAFQNVSTLQGLGESMTQMGYEVINRLRSFRHVPANALVAARLQVEEGSLVTEIRRVRLINREPVSLELTWLPKAVGEKLEKADLVTRDIFLLLENDCGIALGHADLAIDAVLADSDLTQALDVEEGSPIMRIERLTHAADGTPLDFEHLYYRGDAFQYRLRIDRQKGGKA”, the “soluble on expression in E. coli” value is on record as “not soluble”.

“MAELNFKAIEEKWQKRWLEAKIFEPNIRDKPKEKKFYITVAFPYLSGHLHVGHARTYTIPDVIARFKRMQGYNVLFPMAWHITGSPIVGIAERIKNRDPKTIWIYRDVYKVPEEILWTFEDPINIVKYFMKAAKETFIRAGFSVDWSREFYTTSLFPPFSKFIEWQFWKLKEKGYIVKGAHRVRWDPVVGTPLGDHDLMEGEDVPILDYIIIKFELRENGEVIYLPAATLRPETVYGVTNMWVNPNATYVKAKVRRKDKEETWIVSKEAAYKLSFQDREIEVIEEFKGEKLIGKYVRNPVSGDEVIILPAEFVDPDNATGVVMSVPAHAPFDHVALEDLKRETEILEKYDIDPRIVENITYISLIKLEGYGDFPAVEEVNKLGIKSQKDKEKLEQATKTIYKAEYHKGIFKVPPYEGKPVQEVKEAIAKEMLEKGIAEIMYEFAEKNVISRFGNRAVIKIIHDQWFIDYGNPEWKEKARKALERMKILPETRRAQFEAIIDWLDKKACARKIGLGTPLPWDPEWVIESLSDSTIYMAYYTISRHINKLRQEGKLDPEKLTPEFFDYIFLEEFSEDKEKELEKKTGIPAEIIHEMKEEFEYWYPLDWRCSGKDLIPNHLTFFIFNHVAIFREEHWPKGIAVNGFGTLEGQKMSKSKGNVLNFIDAIEENGADVVRLYIMSLAEHDSDFDWRRKEVGKLRKQIERFYELISQFAEYEVKGNVELKDIDRWMLHRLNKAIKETTNALEEFRTRTAVQWAFYSIMNDLRWYLRRTEGRDDEAKRYVLRTLADVWVRLMAPFTPHICEELWEKLGGEGFVSLAKWPEPVEEWWNETIEAEEEFIRSVMEDIKEIIEVAKIENAKRAYIYTAEDWKWKVAEVVSEKRDFKSSMEELMKDSEIRKHGKEVAKIVQKLIKERTFDVKRINEEKALREAKEFMEKELGIEIIINPTEDKGGKKKQAMPLKPAIFIE”: the “soluble on expression in E. coli” value is recorded as “soluble”. With “MAENFVVVDGGVVAPKGFKANGHKDRKYGAALIYSEADAVAAGVFTTNKVYAHPVALSKDTLVNNNVFRAIVANSGNANCFTKGGMEDAELLVKKAAELLKIPENQVLSASTGVIGRKMPMDIISLEVERAFENITMESSNENASKAIMTTDAFPKTVAVEFEVNGKSVRIGGIAKGAGMIAPNMLHATMLGFITTDIEISKEDLTNSLQKATDESFNNAVVDGDMSTNDTVYVLANAQSGVKYTDCKEEFDHALTYVSKELAKMIVSDGEGAKKLIEATVFGAETKEDAKKASMSIVRSLLLKTAVFGADPNWGRIAAAVGYSGAEMDMNNFDIIISDISSEKQAILVKAGEQIADCGTPELKLAEEIMKEDKIKIIVDLKMGSFENTAFGCDLGYDYVKINSEYTTLEHHHHHH”, the “soluble on expression in E. coli” value is listed as “not soluble”. As for “MAEPVRLGRKRPLPVCPNPLFVRWLTEWRDEAASRGRHTRFVFQKALRSLQRYPLPLRSGKEAKILQHFGDRLCRMLDEKLKQHLASGGD”, the “soluble on expression in E. coli” value is reported as “soluble”.

For the origin of these results see the DeepSol protein solubility set.
